In experiment [1] the target is paused elongation complex PEC-225 (E. coli RNAP stalled at U225 of the Bsu-GTR template) (E. coli). Briefly: single-molecule fluorescence colocalisation.
For experiment [2], the target named is paused elongation complex PEC-161 (E. coli RNAP stalled at C161 of the Bsu-GTR template) (E. coli). Nature of the experiment: single-molecule fluorescence colocalisation.

This note sets out measurements from article PMC12154632.

Chain of paused elongation complex PEC-225 (E. coli RNAP stalled at U225 of the Bsu-GTR template) (E. coli) (A1AGI6 whole entry, chain 1 of 4): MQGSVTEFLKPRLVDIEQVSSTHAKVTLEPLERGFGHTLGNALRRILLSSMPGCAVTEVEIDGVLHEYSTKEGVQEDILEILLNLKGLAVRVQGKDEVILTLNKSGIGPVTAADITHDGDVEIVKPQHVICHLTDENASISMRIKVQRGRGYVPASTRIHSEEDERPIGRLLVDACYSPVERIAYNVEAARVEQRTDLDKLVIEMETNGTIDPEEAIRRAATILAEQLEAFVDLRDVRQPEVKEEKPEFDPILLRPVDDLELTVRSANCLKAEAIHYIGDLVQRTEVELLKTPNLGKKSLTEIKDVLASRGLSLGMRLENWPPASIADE
Chain of paused elongation complex PEC-225 (E. coli RNAP stalled at U225 of the Bsu-GTR template) (E. coli) (A1AIF9 whole entry, chain 2 of 4, further chain): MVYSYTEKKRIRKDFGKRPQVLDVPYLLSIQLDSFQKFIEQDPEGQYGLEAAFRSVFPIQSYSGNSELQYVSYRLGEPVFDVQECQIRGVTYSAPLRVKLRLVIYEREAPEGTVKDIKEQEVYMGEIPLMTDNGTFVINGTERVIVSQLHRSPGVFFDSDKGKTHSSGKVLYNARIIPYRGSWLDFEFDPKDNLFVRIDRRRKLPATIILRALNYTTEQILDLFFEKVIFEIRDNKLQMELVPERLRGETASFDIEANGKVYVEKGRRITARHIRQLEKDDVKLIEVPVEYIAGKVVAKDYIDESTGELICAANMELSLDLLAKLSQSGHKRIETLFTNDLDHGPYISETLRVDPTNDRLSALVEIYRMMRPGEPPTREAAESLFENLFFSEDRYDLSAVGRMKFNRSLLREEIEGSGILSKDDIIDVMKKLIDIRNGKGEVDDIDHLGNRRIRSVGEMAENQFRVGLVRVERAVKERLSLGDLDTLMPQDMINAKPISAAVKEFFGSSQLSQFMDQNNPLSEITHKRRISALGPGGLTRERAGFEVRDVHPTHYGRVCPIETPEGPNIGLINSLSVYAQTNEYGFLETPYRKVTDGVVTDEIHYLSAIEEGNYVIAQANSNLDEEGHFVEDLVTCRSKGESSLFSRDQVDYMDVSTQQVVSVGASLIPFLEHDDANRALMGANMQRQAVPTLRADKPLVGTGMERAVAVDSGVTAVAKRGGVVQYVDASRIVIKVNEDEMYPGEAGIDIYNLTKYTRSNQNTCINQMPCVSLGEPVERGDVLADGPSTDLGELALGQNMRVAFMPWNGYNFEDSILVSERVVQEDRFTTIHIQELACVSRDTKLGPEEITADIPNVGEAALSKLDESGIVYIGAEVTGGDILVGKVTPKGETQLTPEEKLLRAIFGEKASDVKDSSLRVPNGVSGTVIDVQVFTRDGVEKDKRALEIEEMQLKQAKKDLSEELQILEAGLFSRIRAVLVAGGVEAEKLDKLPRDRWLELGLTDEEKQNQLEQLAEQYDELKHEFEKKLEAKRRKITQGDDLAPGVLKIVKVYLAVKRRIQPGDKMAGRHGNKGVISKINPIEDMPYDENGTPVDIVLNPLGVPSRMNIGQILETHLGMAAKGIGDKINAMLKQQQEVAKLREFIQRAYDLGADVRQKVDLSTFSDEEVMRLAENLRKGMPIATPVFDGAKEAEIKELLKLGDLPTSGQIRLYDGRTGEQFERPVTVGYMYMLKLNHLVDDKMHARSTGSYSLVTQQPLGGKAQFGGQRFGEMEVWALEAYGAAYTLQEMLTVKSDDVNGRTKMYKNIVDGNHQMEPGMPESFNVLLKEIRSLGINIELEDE
Chain of paused elongation complex PEC-225 (E. coli RNAP stalled at U225 of the Bsu-GTR template) (E. coli) (A7ZUK2 whole entry, chain 3 of 4, further chain): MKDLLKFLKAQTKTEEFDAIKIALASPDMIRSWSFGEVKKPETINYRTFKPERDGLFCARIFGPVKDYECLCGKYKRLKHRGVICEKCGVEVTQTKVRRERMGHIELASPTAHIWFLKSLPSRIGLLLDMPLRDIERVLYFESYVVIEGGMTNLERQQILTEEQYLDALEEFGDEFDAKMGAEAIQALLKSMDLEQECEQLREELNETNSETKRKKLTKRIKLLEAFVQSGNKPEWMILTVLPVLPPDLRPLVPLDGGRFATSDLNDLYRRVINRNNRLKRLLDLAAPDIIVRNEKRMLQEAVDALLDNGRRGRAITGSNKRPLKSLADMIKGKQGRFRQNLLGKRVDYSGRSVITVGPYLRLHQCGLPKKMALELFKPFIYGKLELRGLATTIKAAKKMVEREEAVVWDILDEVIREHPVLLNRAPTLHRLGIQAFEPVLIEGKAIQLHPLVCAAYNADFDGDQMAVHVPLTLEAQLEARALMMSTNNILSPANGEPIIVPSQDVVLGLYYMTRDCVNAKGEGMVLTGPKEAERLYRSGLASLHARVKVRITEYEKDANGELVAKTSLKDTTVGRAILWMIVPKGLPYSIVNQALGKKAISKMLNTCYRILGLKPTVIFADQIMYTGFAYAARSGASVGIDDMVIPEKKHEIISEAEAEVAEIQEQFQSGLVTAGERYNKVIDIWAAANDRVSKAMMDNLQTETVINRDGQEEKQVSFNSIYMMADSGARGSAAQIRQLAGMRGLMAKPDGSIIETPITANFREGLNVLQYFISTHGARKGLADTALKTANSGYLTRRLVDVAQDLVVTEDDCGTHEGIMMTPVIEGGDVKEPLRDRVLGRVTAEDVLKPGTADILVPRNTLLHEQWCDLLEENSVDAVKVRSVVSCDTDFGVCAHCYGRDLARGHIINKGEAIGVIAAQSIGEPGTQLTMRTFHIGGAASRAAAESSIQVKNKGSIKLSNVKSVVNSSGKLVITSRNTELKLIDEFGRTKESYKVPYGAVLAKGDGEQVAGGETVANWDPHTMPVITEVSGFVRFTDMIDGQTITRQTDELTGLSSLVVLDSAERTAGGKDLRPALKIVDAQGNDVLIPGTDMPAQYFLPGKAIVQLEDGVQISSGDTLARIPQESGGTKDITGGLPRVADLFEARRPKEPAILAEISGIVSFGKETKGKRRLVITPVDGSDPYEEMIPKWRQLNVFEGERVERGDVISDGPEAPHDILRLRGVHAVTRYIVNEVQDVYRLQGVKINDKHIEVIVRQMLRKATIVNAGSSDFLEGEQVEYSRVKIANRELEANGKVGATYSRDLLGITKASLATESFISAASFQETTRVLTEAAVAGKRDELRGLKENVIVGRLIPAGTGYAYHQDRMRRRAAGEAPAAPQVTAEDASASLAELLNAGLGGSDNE
Chain of paused elongation complex PEC-225 (E. coli RNAP stalled at U225 of the Bsu-GTR template) (E. coli) (A1AHI0 2-91 limits assumed, chain 4 of 4, further chain): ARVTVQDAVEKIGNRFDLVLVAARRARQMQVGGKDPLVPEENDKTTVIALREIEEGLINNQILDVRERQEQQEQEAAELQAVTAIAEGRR

With “NusA-Cy5 (from UniProt P0AFF6 1-495) (natural protein)”, in experiment [1], the koff is 0.47 s⁻¹; the kon was 4.16e+06 M⁻¹ s⁻¹; the kon, fast (fraction 50%) turned out to be 7.26e+06 M⁻¹ s⁻¹; the kon, slow (fraction 50%) amounted to 1.38e+06 M⁻¹ s⁻¹. In experiment [2], this substance gave an off-rate (koff) of 0.81 s⁻¹; a kon of 1.12e+07 M⁻¹ s⁻¹; a kon, fast (fraction 45%) of 2.34e+07 M⁻¹ s⁻¹; a kon, slow (fraction 55%) of 2.29e+06 M⁻¹ s⁻¹.
